Test results published in US20120093805A1.

Target: sugar chain-deficient cynomolgus CD27 (C-terminal His tag) expressed on Lec8 cells (cynomolgus)
Assay: flow cytometry (FCM) on cynomolgus CD27/Lec8 cells (Example 11(5)) [A]

B1: anti-sugar chain-deficient CD27 chimeric antibody chimeric KM4030 (antibody, human IgG1, V domains shown)
VH: EVQLVESGGGLVQPGRSLKLSCVASGFTFNNYWMTWIRQAPGKGLEWIASITNSGGSTYYPDSVKGRFTISRDNAKGTLYLQMNSLRSEDTATYYCTRDVNTYYGYNALFDYWGQGVMVTVSS
VL: DIQMTQSPSVLSASVGDRVTLNCKASQNINEYLNWYQQKLGEAPKLLIYNTNNLQTGIPSRFSGSGSGTDFTLTISSLQPEDFAAYFCFQHNSWPYTFGAGTKLELK
  EC50 (read off the curve): 0.2 µg/mL
